Measured values from US20190367592A1 (AC IMMUNE, published 2019).
Positions count from the first letter of the chain named. “And” between values parts separate entries of the source, which are not always exact repeats. Identical values can stand only once.

B1: 11E10-B8 (antibody, mouse IgG2a, V domains shown)
VH: EVQLVESGGDLVKPGGSLKLSCAASGFTFRSYGMSWVRQTPDKRLEWVATISGGGSYTYYPDSVKGRFTISRDNAKNTLYLQMSSLKSEDTAMYYCAVSYDGAMDYWGQGTSVTVSS
VL: DVLMTQTPLSLPVSLGDQASISCRSSQSIVHSNGNTYLEWYLQKPGQSPKLLIYKVSNRFSGVPDRFSGSGSGTDFTLKISRVEAEDLGLYYCFQGSHVPWTFGGGTKLEIK
B2: 26C1 (antibody, mouse IgG2a, V domains shown)
VH: EVHLQQSGAELVRSGASVKLSCTASGFNIKDYYMYWVKQRPEQGLEWIGWIDPENGDTEYFPKFQGKATMTADTSSKTAYLQLSSLTSEDTAVYYCNAWRARATNSALDYWGQGTSVTVSS
VL: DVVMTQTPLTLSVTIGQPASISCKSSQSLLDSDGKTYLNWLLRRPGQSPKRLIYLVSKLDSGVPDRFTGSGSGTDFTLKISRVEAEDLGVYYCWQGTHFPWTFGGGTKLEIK
notes: recombinant murine IgG2a/kappa; label without subclone
B3: hu125B11 HC1 + hu113F5-F7 LC3 (antibody, V domains shown)
VH: EVQLVESGGGLVQPGGSLRLSCAASRFIFSNYWMNWVRQAPGKGLEWVAQIRLKSDNYATHYAESVKGRFTISRDDSKNTVYLQMNSLRAEDTAVYYCTGGTTYWGQGTLVTVSS
VL: DIQMTQSPSSLSASVGDRVTITCKASQNVGTAVAWYQQKPGKSPKLLIYSASRRFSGVPSRFSGSGSGTDFTLTISSLQPEDFATYYCQQFSTYPYTFGQGTKVEIK
B4: hu125B11 HC1 + 125B11 LC1 (antibody, V domains shown)
VH: B3 VH
VL: B3 VL with R53I, F55Y, S56T, Y87F, S92R
B5: hu125B11 HC1 + 125B11 LC4 (antibody, V domains shown)
VH: B3 VH
VL: B3 VL with S43A, R53I, F55Y, S56T, S92R
B6: hu125B11 HC3 + hu113F5-F7 LC2 (antibody, V domains shown)
VH: B3 VH with V81L
VL: B3 VL with S43A, Y87F
B7: hu125B11 HC4 + hu113F5-F7 LC1 (antibody, V domains shown)
VH: B3 VH with D76N, V81L
VL: B3 VL with Y87F
B8: hu125B11 HC4 + 125B11 LC3 (antibody, V domains shown)
VH: B3 VH with D76N, V81L
VL: B3 VL with R53I, F55Y, S56T, S92R
B9: hu125B11 HC3 + 125B11 LC2 (antibody, V domains shown)
VH: B3 VH with V81L
VL: B3 VL with S43A, R53I, F55Y, S56T, Y87F, S92R
B10: hu125B11 HC3 + hu113F5-F7 LC4 (antibody, V domains shown)
VH: B3 VH with V81L
VL: B3 VL with S43A
B11: hu125B11 HC2 + hu113F5-F7 LC1 (antibody, V domains shown)
VH: B3 VH with D76N
VL: B3 VL with Y87F
B12: hu125B11 HC1 + 125B11 LC2 (antibody, V domains shown)
VH: B3 VH
VL: B3 VL with S43A, R53I, F55Y, S56T, Y87F, S92R
B13: hu125B11 HC2 + hu113F5-F7 LC2 (antibody, V domains shown)
VH: B3 VH with D76N
VL: B3 VL with S43A, Y87F
B14: hu125B11 HC4 + hu113F5-F7 LC2 (antibody, V domains shown)
VH: B3 VH with D76N, V81L
VL: B3 VL with S43A, Y87F
B15: hu125B11 HC2 + 125B11 LC4 (antibody, V domains shown)
VH: B3 VH with D76N
VL: B3 VL with S43A, R53I, F55Y, S56T, S92R
B16: hu125B11 HC5 + 125B11 LC1 (antibody, V domains shown)
VH: B3 VH with W33Y
VL: B3 VL with R53I, F55Y, S56T, Y87F, S92R
B17: hu125B11 HC4 + hu113F5-F7 LC3 (antibody, V domains shown)
VH: B3 VH with D76N, V81L
VL: B3 VL
B18: hu125B11 HC3 + 125B11 LC3 (antibody, V domains shown)
VH: B3 VH with V81L
VL: B3 VL with R53I, F55Y, S56T, S92R
B19: hu125B11 HC1 + hu113F5-F7 LC2 (antibody, V domains shown)
VH: B3 VH
VL: B3 VL with S43A, Y87F
B20: hu125B11 HC2 + hu113F5-F7 LC4 (antibody, V domains shown)
VH: B3 VH with D76N
VL: B3 VL with S43A
B21: hu125B11 HC1 + 125B11 LC3 (antibody, V domains shown)
VH: B3 VH
VL: B3 VL with R53I, F55Y, S56T, S92R
B22: hu125B11 HC3 + hu113F5-F7 LC3 (antibody, V domains shown)
VH: B3 VH with V81L
VL: B3 VL
B23: hu125B11 HC3 + hu113F5-F7 LC1 (antibody, V domains shown)
VH: B3 VH with V81L
VL: B3 VL with Y87F
B24: hu125B11 HC4 + 125B11 LC1 (antibody, V domains shown)
VH: B3 VH with D76N, V81L
VL: B3 VL with R53I, F55Y, S56T, Y87F, S92R
B25: hu125B11 HC2 + hu113F5-F7 LC3 (antibody, V domains shown)
VH: B3 VH with D76N
VL: B3 VL
B26: hu125B11 HC2 + 125B11 LC3 (antibody, V domains shown)
VH: B3 VH with D76N
VL: B3 VL with R53I, F55Y, S56T, S92R
B27: hu125B11 HC4 + hu113F5-F7 LC4 (antibody, V domains shown)
VH: B3 VH with D76N, V81L
VL: B3 VL with S43A
B28: hu125B11 HC2 + 125B11 LC2 (antibody, V domains shown)
VH: B3 VH with D76N
VL: B3 VL with S43A, R53I, F55Y, S56T, Y87F, S92R
B29: hu125B11 HC3 + 125B11 LC4 (antibody, V domains shown)
VH: B3 VH with V81L
VL: B3 VL with S43A, R53I, F55Y, S56T, S92R
B30: hu125B11 HC1 + hu113F5-F7 LC4 (antibody, V domains shown)
VH: B3 VH
VL: B3 VL with S43A
B31: hu125B11 HC1 + hu113F5-F7 LC1 (antibody, V domains shown)
VH: B3 VH
VL: B3 VL with Y87F
B32: hu125B11 HC2 + 125B11 LC1 (antibody, V domains shown)
VH: B3 VH with D76N
VL: B3 VL with R53I, F55Y, S56T, Y87F, S92R
B33: 30G1-B2 (antibody, mouse IgG2a, V domains shown)
VH: QVQLQQSGAELVRPGASVTLSCKASGYTFTDYEMYWVKQTPVHGLEWIGAIDPETGDTAYNQKFKGKATLTADKSSNTAYMELRSLTSEDSAVYYCIRQYGNWFPYWGQGTLVTVSA
VL: DVVMTQTPLSLPVSLGDQASISCRSSQSLVHANGNTYLHWFLQKPGLSPKLLIYKVSNRFSGVPDRFSGGGSGTDFTLKITRLEAEDLGVYFCSQSTHVPFTFGSGTKLEIK
B34: 66F5-A1 (antibody, mouse IgG2a, V domains shown)
VH: QVQLQQSGAELVRPGASVTLSCKASGYTFIDYEMNWVKQTPVHGLEWIGAIDPENGGTAYNQKFKGKAIVTADKSSSTAYMELRSLTSEDSAVYYCSGPHFDYWGQGTTLTVSS
VL: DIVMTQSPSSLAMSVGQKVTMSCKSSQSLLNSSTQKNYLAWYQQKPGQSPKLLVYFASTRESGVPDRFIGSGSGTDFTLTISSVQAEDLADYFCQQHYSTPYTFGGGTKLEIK

Tests used:
[1] = molecular target: T1, recombinant human Tau monomer, 2N4R isoform (amino acids 2-441) (human, UniProt P10636-8 2-441); assay: SPR, mIgG2a captured, Tau monomer analyte, 1:1 fit
T1 construct: range 2-441; N-terminal His-tag removed with TEV protease; also called monomeric Tau
Text: Antibody heavy and light chains were constructed via gene synthesis and subcloning of the resulting DNA into murine IgG2a (heavy chain) and murine kappa (light chain) mammalian expression vectors. Antibodies were expressed in CHO or 293T cells by transient co-transfection of the heavy chain and light chain plasmids and were purified with affinity resin MabSelectSure (GE Healthcare Life Sciences). Purified recombinant antibodies were screened for binding to Tau monomer protein on a Biacore T200 surface plasmon resonance instrument using a mouse IgG capture kit and a Series S CM5 chip. Antibodies in mIgG2a format diluted in 10 mM HEPES pH7.4, 150 mM NaCl, 0.05% Tween 20 (running buffer, HBSP) were captured for 30 or 45 seconds at a concentration of 1 μg/ml (antibodies 26C1, 94B2-C1, 52F6-F11.v1, 52F6-F11.v2, 11E10-B8, 55E7-F11, 125B1-H3, 123E9-A1, 30G1-B2, 66F5-A1, 89F4-A1, 93A8-D2 and 126F11-G11) or for 70 or 150 seconds at a concentration of 0.1 μg/ml (antibodies 19H6-F7, 3A4-H4, 54C1-H11 and 37D3-H9) using a flow rate of 10 μl/min. […] Association and dissociation times were monitored for 180-480 seconds and for 300-600 seconds respectively. Antibody 37D3-H9 was selected for further analysis due to the high affinity (Table 6) and the absence of NXS/T glycosylation motifs in the CDRs.

[2] = molecular target: T1, recombinant human Tau monomer, 2N4R …; assay: SPR screen, hIgG captured, Tau monomer analyte
Text: Antibody 125B11-H3 was humanized onto VH3 and Vκ1 consensus frameworks. The heavy chain graft included murine residues at position 78 (Kabat numbering system). The Vκ1 graft included murine residues in framework positions 43 and 87. The light chain of 113F5-F7 was also humanized onto the Vκ1 framework, with additional murine residues at framework positions 43 and 87. Humanized variant heavy chains (125B11) and light chains (125B11 and 113F5-F7) were co-transfected in multiple combinations and purified in 96-well format as described above. Humanized variants were then screened for affinity for human Tau monomer using the Biacore human IgG capture kit, a Series S CM5 chip and a Biacore T200 instrument. Antibodies were diluted to 2 μg/ml and captured for 15 seconds at 10 μl/min. Association and dissociation of 0, 100 and 500 nM human Tau monomer in HBSP was monitored for 180s and 300s respectively at a flow rate of 40 μl/min. A 1:1 binding model was applied to the results (Table 9).

T1 sequence (P10636 other isoform, or with tags, fused parts or gaps limits assumed): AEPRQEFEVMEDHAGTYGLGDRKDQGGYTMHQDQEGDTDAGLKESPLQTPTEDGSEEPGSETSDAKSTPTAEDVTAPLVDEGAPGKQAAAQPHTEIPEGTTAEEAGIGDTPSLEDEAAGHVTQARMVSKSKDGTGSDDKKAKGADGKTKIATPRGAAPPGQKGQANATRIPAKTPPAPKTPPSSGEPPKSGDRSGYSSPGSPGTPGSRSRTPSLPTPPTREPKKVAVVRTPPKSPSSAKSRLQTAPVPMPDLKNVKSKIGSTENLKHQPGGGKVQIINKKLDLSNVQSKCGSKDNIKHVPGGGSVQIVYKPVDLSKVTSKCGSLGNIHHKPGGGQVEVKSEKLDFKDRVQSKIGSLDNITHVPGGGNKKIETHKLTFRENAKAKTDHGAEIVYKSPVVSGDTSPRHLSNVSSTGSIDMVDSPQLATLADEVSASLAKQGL

Binder	Kd [2]	also measured
B1	–	Kd [1]: 108 nM; koff [1]: 0.02 s⁻¹; kon [1]: 200000 M⁻¹ s⁻¹
B2	–	Kd [1]: 17 nM; koff [1]: 0.0007 s⁻¹; kon [1]: 40000 M⁻¹ s⁻¹
B3	61 nM	–
B4	16 nM and 19 nM	–
B5	23 nM	–
B6	55 nM	–
B7	44 nM	–
B8	15 nM	–
B9	19 nM	–
B10	65 nM	–
B11	61 nM	–
B12	20 nM	–
B13	68 nM	–
B14	47 nM	–
B15	22 nM	–
B16	85 nM	–
B17	47 nM	–

Binder	Kd [2]	also measured
B18	20 nM	–
B19	67 nM	–
B20	77 nM	–
B21	21 nM	–
B22	54 nM	–
B23	54 nM	–
B24	15 nM	–
B25	64 nM	–
B26	23 nM	–
B27	51 nM	–
B28	20 nM	–
B29	20 nM	–
B30	71 nM	–
B31	57 nM	–
B32	18 nM	–
B33	–	Kd [1]: 20 nM; koff [1]: 0.008 s⁻¹; kon [1]: 400000 M⁻¹ s⁻¹
B34	–	Kd [1]: 105 nM; koff [1]: 0.008 s⁻¹; kon [1]: 80000 M⁻¹ s⁻¹
